Common to all, as to experiment: other fluorescence titration
Assay [1] concerns the target cpSRP54(234C)-acrylodan (Arabidopsis thaliana) (UniProt P37107).
The target is the same in assay [2]. The source holds these as a separate data set.
For assay [3], the target named is acrylodan-labeled cpSRP54(234C, A142W) (Arabidopsis thaliana).

Where two headings read alike, the source gives them in different places.

B1: cpFtsY (chloroplast SRP receptor), wildtype (natural protein)
chain: CSAGPSGFFTRLGRLIKEKAKSDVEKVFSGFSKTRENLAVIDELLLFWNLAETDRVLDELEEALLVSDFGPKITVRIVERLREDIMSGKLKSGSEIKDALKESVLEMLAKKNSKTELQLGFRKPAVIMIVGVNGGGKTTSLGKLAHRLKNEGTKVLMAAGDTFRAAASDQLEIWAERTGCEIVVAEGDKAKAATVLSKAVKRGKEEGYDVVLCDTSGRLHTNYSLMEELIACKKAVGKIVSGAPNEILLVLDGNTGLNMLPQAREFNEVVGITGLILTKLDGSARGGCVVSVVEELGIPVKFIGVGEAVEDLQPFDPEAFVNAIFS
What is called kon is a measure of how fast the partners come together. What is called koff is the first-order rate constant of dissociation. Read a high koff as a short-lived complex. B1: the kon in assay [1] was 157000 M⁻¹ s⁻¹. For the same molecule, in assay [2], the kon was found to be 230000 M⁻¹ s⁻¹. In assay [3], the apparent dissociation rate constant (before subtracting GTP hydrolysis) turned out to be 0.038 s⁻¹, the koff amounted to 0.03 s⁻¹ and the kon was determined as 190000 M⁻¹ s⁻¹.

The values above are taken from PMC6309729.
